From patent US20200339648A1 (University of Washington, published 2020)
Positions count from the first letter of the chain named. Each block holds one binder with its values, some of them ahead of it.

Key:
[1] = biological target: T1, mouse IL-2 receptor βγc heterodimer (mIL-2Rβγc), soluble (mouse, UniProt P16297 27-240; P34902 23-263, biotin on the C-terminal biotin acceptor peptide); test: SPR, equilibrium titration; IL-2Rγ on streptavidin chip, saturating IL-2Rβ in solution
T1 construct: extracellular domain; also called MmIL-2Rβγc; mIL-2Rβνc
T1 sequence 1: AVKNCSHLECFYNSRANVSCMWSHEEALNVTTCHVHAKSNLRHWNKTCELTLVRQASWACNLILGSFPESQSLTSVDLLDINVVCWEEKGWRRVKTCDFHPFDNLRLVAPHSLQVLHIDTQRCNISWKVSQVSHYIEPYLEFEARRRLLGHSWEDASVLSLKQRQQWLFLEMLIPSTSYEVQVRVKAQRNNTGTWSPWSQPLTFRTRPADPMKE
T1 sequence 2: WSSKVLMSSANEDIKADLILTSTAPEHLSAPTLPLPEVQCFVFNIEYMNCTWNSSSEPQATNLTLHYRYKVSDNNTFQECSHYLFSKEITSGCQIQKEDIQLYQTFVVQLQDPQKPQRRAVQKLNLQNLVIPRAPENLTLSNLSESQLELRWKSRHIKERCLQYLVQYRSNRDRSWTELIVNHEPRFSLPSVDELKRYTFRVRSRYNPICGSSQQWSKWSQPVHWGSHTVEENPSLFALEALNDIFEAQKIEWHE
Experimental: (§1) Less than 100 response units (RU) of each ligand was immobilized to minimize mass transfer effects. […] Surface regeneration for all interactions was conducted using 15 s exposure to 1 M MgCl2 in 10 mM sodium acetate pH 5.5. SPR experiments were carried out in HBS-P+ buffer (GE Healthcare) supplemented with 0.2% bovine serum albumin (BSA) at 25° C. and all binding studies were performed at a flow rate of […] to prevent analyte rebinding. Data was visualized and processed using the Biacore T100 evaluation software version 2.0 (GE Healthcare). Equilibrium titration curve fitting and equilibrium binding dissociation (KD) value determination was implemented using GraphPad Prism assuming all binding interactions to be first order. Biolayer interferometry: binding data were collected in a Octet RED96 (ForteBio, Menlo Park, Calif.) and processed using the instrument's integrated software using a 1:1 binding model. […] Analyte proteins were diluted from concentrated stocks into binding buffer. After baseline measurement in binding buffer alone, the binding kinetics were monitored by dipping the biosensors in wells containing 100 nM of the designed protein (association) and then dipping the sensors back into baseline wells (dissociation).

[2] = biological target: T2, mouse IL-2Rβγc on murine cells (CTLL-2 T cells, primary CD4+ T cells) (mouse, UniProt P16297 27-539; P34902 23-369); test: cell-based or functional assay
T2 sequence (looked up) 1: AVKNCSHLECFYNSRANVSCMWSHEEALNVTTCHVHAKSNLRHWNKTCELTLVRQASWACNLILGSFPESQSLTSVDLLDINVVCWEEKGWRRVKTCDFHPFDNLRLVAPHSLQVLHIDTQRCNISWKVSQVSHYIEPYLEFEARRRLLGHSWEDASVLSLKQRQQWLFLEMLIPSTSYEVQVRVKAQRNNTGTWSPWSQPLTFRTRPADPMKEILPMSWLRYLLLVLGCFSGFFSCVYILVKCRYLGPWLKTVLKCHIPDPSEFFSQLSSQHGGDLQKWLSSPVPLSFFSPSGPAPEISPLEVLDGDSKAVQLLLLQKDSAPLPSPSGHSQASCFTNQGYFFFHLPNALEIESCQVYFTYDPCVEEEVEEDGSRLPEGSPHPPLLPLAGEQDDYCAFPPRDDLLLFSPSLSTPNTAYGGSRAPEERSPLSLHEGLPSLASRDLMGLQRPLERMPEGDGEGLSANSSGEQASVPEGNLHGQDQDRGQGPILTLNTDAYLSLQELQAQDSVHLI
T2 sequence (looked up) 2: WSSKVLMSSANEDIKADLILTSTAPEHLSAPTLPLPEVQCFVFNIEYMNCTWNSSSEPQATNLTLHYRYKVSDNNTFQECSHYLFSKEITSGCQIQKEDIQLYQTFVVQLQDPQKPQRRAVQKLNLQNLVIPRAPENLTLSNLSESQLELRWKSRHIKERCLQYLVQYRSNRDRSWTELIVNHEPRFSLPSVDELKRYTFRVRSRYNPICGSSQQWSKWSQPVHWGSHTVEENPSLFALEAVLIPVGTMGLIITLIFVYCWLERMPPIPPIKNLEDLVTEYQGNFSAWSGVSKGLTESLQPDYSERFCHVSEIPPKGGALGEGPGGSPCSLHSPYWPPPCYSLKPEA

[3] = biological target: T1, mouse IL-2 receptor βγc heterodimer …; test: affinity maturation by yeast display for human and mouse IL-2Rβνc
Experimental: (§2) The vector was linearized by 100 fold overdigestion by NdeI and XhoI (New England Biolabs) and then purified by gel extraction (Qiagen). The genes included 50 bases of overlap with the vector on both the 5′ and 3′ ends such that homologous recombination would place the genes in frame between the AGA2 gene and the myc tag on the vector. Yeast were grown in C-Trp-Ura media prior to induction in SGCAA media as previously described. […] After approximately 30 minutes, cells were washed again in chilled buffer, and then incubated on ice for 5 minutes with FITC-conjugated anti-c-Myc antibody (1 uL per 3×10⁶ cells) and streptavidin-phycoerythrin (1 uL per 100 uL volume of yeast). Yeast were then washed and counted by flow cytometry (Accuri C6) or sorted by FACS (Sony SH800).

[4] = biological target: T3, human IL-2 receptor βγc heterodimer (hIL-2Rβγc), soluble (human, UniProt P14784 27-240; P31785 23-254, biotin on the C-terminal biotin acceptor peptide); test: as above
T3 construct: also called HsIL-2Rβγc; hIL-2Rβνc
T3 sequence 1: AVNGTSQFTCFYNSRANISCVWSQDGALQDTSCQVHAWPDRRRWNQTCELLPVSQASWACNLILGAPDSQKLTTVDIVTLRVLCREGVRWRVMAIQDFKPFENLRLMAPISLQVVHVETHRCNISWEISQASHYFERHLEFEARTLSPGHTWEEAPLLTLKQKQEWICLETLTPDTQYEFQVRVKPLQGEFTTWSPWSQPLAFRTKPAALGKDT
T3 sequence 2: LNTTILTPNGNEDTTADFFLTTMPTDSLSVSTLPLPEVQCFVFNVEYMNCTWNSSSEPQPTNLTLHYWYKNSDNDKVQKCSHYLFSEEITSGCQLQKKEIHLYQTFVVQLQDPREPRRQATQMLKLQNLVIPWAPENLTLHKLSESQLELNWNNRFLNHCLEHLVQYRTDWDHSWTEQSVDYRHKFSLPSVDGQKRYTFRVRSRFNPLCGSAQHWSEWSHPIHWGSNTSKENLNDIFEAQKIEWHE
Experimental: as §2

[5] = biological target: T4, mouse IL-2 receptor β subunit (mIL-2Rβ) (mouse, UniProt P16297 27-240, biotin on the C-terminal biotin acceptor peptide); test: SPR, equilibrium titration; biotinylated IL-2Rβ on streptavidin chip
T4 construct: extracellular domain; Biotinylated form for SPR; also called MmIL-2Rβ; murine IL-2Rβ
T4 sequence: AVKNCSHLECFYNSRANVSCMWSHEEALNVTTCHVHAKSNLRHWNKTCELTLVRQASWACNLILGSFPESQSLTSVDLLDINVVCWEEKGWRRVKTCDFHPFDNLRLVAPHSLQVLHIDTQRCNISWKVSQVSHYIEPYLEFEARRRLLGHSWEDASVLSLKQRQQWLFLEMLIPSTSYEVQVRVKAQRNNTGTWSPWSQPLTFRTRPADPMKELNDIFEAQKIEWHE
Experimental: as §1

- Kd [1]: 27.8 nM
- EC50 (CD25+) pSTAT5, murine T (CTLL-2, CD25+) cells [2]: 1.06 nM
B1: G2_neo2_40_1F_seq26 (designed binder)
chain: TKKKYQLLIEHALLDALMILNLWSESNEKLNRIITTMQSWIFTGTYDPDKAEELEKLAKEIEDEARERGIDTEDYMSNLRVILKELS

- binding result [3]: binds
- binding result [4]: binds
B2: G2_neo2_40_1F_seq29_S8 (designed binder)
chain: EDYYSNLKLILEELAREMERNGLSDKAEEWRQWKKIVERIRQIRSNNSDLNEAKELLNRLITYIQSQIFEVLEGVGETDQEKKEESWKKWELHLEHALLDVLMLLND

- Kd [1]: 38.2 nM
- EC50 (CD25+) pSTAT5, murine T (CTLL-2, CD25+) cells [2]: 0.48 nM
B3: G2_neo2_40_1F_dsn29 (designed binder)
chain: B2 chain with L9V, V71I, L72S, G74R, V75I, G76R, E91Q, H93L
notes: E. coli, N-terminal 6xHis tag and thrombin site

- binding result [3]: binds
- binding result [4]: binds
B4: G2_neo2_40_1F_seq27_S24 (designed binder)
chain: TNKKAQLHAEFALYDALMLLNLSSESNERLNDIITWLQSIIFTGTYDPDMVKEAVKLADEIEDEMRKRKIDTEDYVVNLRYILQELA

- Kd [1]: 13.6 nM
- EC50 (CD25+) pSTAT5, murine T (CTLL-2, CD25+) cells [2]: 0.24 nM
B5: G2_neo2_40_1F_seq27 (designed binder)
chain: B4 chain with N2K, H8L, F11H, Y14L, D32R, K69G, V77S, Y81V

- Kd [1]: 80 nM
- EC50 (CD25+) pSTAT5, murine T (CTLL-2, CD25+) cells [2]: 1.95 nM
B6: G2_neo2_40_1F_seq04 (designed binder)
chain: TTKKIQLLVEHALLDALMILNLSSESNEKLNRIITTLQSWIFRGEIDPDRARELAKLLEEIREEMRKRGIDTEDYVSNMIVIIRELA

- Kd [5]: 6800 nM
- Kd [1]: 2650 nM
- EC50 (CD25+) pSTAT5, murine T (CTLL-2, CD25+) cells [2]: 37.4 nM
B7: G1_neo2_40_1F_H1 (designed binder)
chain: STKKTQLLIEHALLDALDMSRNLPEPNEKLSRIITTMQSWIFTGKIDGDGAQQLAKEVEELEQEHEKRGEDVEDEASNLKVILLELA

- Kd [5]: 45300 nM
- Kd [1]: 5120 nM
- EC50 (CD25+) pSTAT5, murine T (CTLL-2, CD25+) cells [2]: 84.7 nM
B8: G1_neo2_40_1F_H5 (designed binder)
chain: B7 chain with D18H, N22K, Q53H, E70G, D71E

- binding result [5]: no binding
- Kd [1]: 3830 nM
- EC50 (CD25+) pSTAT5, murine T (CTLL-2, CD25+) cells [2]: 35.2 nM
B9: G1_neo2_40_1F_H3 (designed binder)
chain: B7 chain with D18N, S20R, R21K, N22K, T36D, E70G, E75Y

- Kd [5]: 10100 nM
- Kd [1]: 392 nM
- EC50 (CD25+) pSTAT5, murine T (CTLL-2, CD25+) cells [2]: 0.93 nM
B10: G1_neo2_40_1F_H4 (designed binder)
chain: B7 chain with I9L, D18H, N22E, S31N, T36D, Q53D, E70G, E75Y

- Kd [5]: 68300 nM
- Kd [1]: 964 nM
- EC50 (CD25+) pSTAT5, murine T (CTLL-2, CD25+) cells [2]: 9.38 nM
B11: G1_neo2_40_1F_H2 (designed binder)
chain: B7 chain with I9L, D18H, S20R, Q53E, E70R, E75D

- Kd [1]: 925 nM
- EC50 (CD25+) pSTAT5, murine T (CTLL-2, CD25+) cells [2]: 7.61 nM
B12: G2_neo2_40_1F_dsn30 (designed binder)
chain: PEKKRQLLLEHILLDALMLLNLLETNPQNTESKFEDYISNAEVIAEELAKLMESLGLSDEAEKFKKIKQWLREVWRIWSSTNWSTLEDKARELLNRIITTIQSQIFY
notes: as for B3

- Kd [5]: 402 nM
- Kd [1]: 64.8 nM
- EC50 (CD25+) pSTAT5, murine T (CTLL-2, CD25+) cells [2]: 80 pM
B13: G1_neo2_40_1F_M3 (designed binder)
chain: STEKTQHAAEDALRDALMLRNLLNEPNEKLARIITTMQSWQFTEKIDGDGAQELAKEVEELQQEHEVRGIDVEDYASNLKVILLQLA

- Kd [5]: 214 nM
- Kd [1]: 4.3 nM
- EC50 (CD25+) pSTAT5, murine T (CTLL-2, CD25+) cells [2]: 7 pM
B14: G1_neo2_40_1F_M1 (designed binder)
chain: B13 chain with H7L, D11H, R20K, N21H, E44G, Q85H

- Kd [5]: 2600 nM
- Kd [1]: 886 nM
- EC50 (CD25+) pSTAT5, murine T (CTLL-2, CD25+) cells [2]: 3.11 nM
B15: G1_neo2_40_1F_M2 (designed binder)
chain: B13 chain with E3K, K4N, H7L, R14L, V67E

- Kd [1]: 69.2 nM
- EC50 (CD25+) pSTAT5, murine T (CTLL-2, CD25+) cells [2]: 0.5 nM
B16: G2_neo2_40_1F_dsn40 (designed binder)
chain: PEKKRQLLAEHALLDALMILNIIRTNSDNTESKLEDYISNLKVILEEIARLMESLGLSDEAEKAKEAMRLADKAGSTASEEEKKEAMNRVITWAQSWIFN
notes: as for B3

- Kd [1]: 71.5 nM
- EC50 (CD25+) pSTAT5, murine T (CTLL-2, CD25+) cells [2]: 2.2 nM
B17: G2_neo2_40_1F_seq16 (designed binder)
chain: TKKKIQLLVEHALLDALMILNLSSKSNEKLNRIITTMQSWIFNGTIDPDRARELAKLVEEIRDEMEKNGIDTEDYVSNLKVILEELA

- Kd [1]: 39.1 nM
- EC50 (CD25+) pSTAT5, murine T (CTLL-2, CD25+) cells [2]: 1.74 nM
B18: G2_neo2_40_1F_seq12 (designed binder)
chain: TEKKLQLLVEHALLDALMILNLWSESNEKLNRIITTMQSWIFTGRIDPDKAEELAKLVEELREEARERGIDTEDYVSNLKVILKELS
